Data reported in patent US20220153854A1.

Molecular target: membrane bound human OX40L on CHO-KI cells (human) (UniProt P23510)
Assay: cell-based or functional assay

membrane bound human OX40L on CHO-KI cells (human), sequence (P23510 whole entry): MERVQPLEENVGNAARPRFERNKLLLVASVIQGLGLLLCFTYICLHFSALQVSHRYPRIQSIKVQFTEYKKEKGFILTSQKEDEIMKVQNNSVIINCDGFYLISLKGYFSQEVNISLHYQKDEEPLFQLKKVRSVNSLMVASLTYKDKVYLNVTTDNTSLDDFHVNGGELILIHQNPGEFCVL

PBMC activity assay IC50: 2.5 nM
fold better potency in the OX40L-driven PBMC activity assay against the non-affinity matured counterpart (15B07): 20 fold
fold better potency in the PBMC activity assay against F-027100179: 10 fold
B1: ISVD construct F027100172 (protein, part only; not given: anti-IL-13 building blocks, part only)
chain, part: DVQLVESGGGVVQPGGSLRLSCAASRSIGRYDRMGWYRHRPGEPRELVATITGGSSINYGDSVKGRFTISIDNSKNTVYLQMNSLRPEDTALYYCNFNKYQISRDTWGQGTLVTVSSGGGGSGGGSGGGGSGGGSEVQLVESGGGVVQPGGSLRLSCAASGFTFRSFGMSWVRQAPGKGPEWVSSISGSGSDTLYADSVKGRFTISRDNSKNTLYLQMNSLRPEDTALYYCTIGGSLSRSSQGTLVTVSSGGGGSGGGS
